US10287340B2, “Anti-HIV domain antibodies and method of making and using same” (priority 2008, dated 2019)
Entries after “also recorded” stand apart in the source; their conditions may differ. Where two headings read alike, the source gives them in different places.

What was measured:
[1] = target: gp120Bal-CD4; experiment: Binding ELISA to gp120Bal-CD4 (Example 3); parameters: species or system HIV-1
[2] = system: Viruses pseudotyped with HIV-1 Envs; experiment: Pseudovirus neutralization assay; format: cell-based; details: for neutralizing activity compared to m36: side by side in the same experiment
[3] = target: serum albumin from human (HSA) (Homo sapiens, UniProt P02768); experiment: Binding of m36SAbp to human serum albumin; details: data not shown
[4] = target: serum albumin from bovine (BSA) (Bos taurus, UniProt P02769); experiment: Binding of m36SAbp to bovine serum albumin; details: data not shown
Chain of serum albumin from bovine (BSA) (P02769 25-607): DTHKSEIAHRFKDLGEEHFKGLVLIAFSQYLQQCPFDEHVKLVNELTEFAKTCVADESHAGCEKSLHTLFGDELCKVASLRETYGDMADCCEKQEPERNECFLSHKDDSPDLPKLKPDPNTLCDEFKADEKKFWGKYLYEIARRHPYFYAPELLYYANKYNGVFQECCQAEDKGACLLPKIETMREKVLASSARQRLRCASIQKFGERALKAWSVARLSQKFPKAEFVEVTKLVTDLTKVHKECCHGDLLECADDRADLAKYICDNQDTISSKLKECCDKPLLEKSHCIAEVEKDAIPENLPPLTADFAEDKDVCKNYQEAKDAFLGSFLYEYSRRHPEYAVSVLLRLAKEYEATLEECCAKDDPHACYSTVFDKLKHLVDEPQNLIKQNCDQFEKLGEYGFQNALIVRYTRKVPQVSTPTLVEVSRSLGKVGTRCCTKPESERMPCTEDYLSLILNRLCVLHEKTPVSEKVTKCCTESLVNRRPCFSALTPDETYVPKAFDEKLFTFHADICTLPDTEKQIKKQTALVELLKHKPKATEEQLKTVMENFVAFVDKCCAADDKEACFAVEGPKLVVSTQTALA

[5] = target: serum albumin from mouse (MSA) (Mus musculus, UniProt P07724); experiment: Binding of m36SAbp to mouse serum albumin; details: data not shown
Chain of serum albumin from mouse (MSA) (P07724 25-608): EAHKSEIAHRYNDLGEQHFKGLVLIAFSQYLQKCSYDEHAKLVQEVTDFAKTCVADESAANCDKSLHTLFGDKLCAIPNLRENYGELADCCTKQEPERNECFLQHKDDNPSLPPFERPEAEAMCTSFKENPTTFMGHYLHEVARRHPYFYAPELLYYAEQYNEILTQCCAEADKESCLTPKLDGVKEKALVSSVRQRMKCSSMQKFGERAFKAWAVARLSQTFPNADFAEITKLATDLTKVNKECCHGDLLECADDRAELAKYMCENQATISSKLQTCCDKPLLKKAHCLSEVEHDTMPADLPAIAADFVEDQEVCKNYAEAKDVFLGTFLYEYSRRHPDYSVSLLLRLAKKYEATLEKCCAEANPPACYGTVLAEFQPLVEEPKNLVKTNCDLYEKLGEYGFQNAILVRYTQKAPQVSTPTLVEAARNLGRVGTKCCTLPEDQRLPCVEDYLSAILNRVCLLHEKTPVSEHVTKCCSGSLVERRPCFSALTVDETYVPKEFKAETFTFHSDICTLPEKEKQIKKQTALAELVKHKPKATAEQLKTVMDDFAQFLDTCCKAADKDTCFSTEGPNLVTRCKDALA

[6] = system: gp120Bal-CD4; experiment: Competition ELISA on gp120Bal-CD4; format: binding, HIV-1
Experimental: (§1) Antigens were coated and blocked as described above. […] Mixtures were subsequently added to each well and incubated. Bound m36 was detected and the assay was developed as described above.

[7] = system: gp140GXC-44; experiment: Competition ELISA on gp140GXC-44; format: binding, HIV-1; details: in the absence of CD4
Experimental: as §1

[8] = target: soluble CD4 (sCD4) (Homo sapiens, UniProt P01730); experiment: ELISA binding to CD4 alone
[9] = system: gp140 from a clade C isolate GXC-44 (gp140GXC-44); experiment: Binding ELISA to gp140GXC-44; parameters: species or system HIV-1
[10] = Size exclusion chromatography, oligomerization; details: Superdex75, PBS
[11] = system: tethered gp140 from 89.6
Chain of tethered gp140 from 89.6 (Q73372 32-496 limits assumed): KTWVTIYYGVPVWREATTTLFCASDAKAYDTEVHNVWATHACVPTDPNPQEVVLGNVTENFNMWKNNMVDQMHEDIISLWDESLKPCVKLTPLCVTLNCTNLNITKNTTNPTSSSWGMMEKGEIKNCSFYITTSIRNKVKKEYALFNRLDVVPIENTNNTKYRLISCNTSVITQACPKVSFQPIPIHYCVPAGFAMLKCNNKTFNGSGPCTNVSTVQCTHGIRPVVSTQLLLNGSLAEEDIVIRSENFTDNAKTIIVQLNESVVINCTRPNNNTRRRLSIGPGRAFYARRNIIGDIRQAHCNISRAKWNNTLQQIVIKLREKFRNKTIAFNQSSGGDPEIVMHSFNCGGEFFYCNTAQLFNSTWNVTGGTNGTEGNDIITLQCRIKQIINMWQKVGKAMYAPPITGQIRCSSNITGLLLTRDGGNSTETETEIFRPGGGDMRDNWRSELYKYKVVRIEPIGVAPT

[12] = system: gp120Bal; experiment: ELISA binding to gp120 alone; parameters: species or system HIV-1; details: without CD4
[13] = target: BSA (Bos taurus, UniProt P02769); experiment: Binding ELISA to BSA (unrelated antigen)
Chain of BSA (P02769 25-607): as the sequence (P02769 25-607) above

[14] = Storage of VH protein solutions at 4° C., precipitation; format: physicochemical; details: stored at 4° C. for 4 weeks

B1: m36h3Fc: m36 joined with human IgG1 Fc by a human IgG3 hinge (protein)
chain: QVQLVQSGGGLVQPGGSLRLSCAASAFDFSDYEMSWVRQAPGKGLEWIGEINDSGNTIYNPSLKSRVTISRDNSKNTLYLQMNTLRAEDTAIYYCAIYGGNSGGEYWGQGTLVTVSSELKTPLGDTTHTCPRCPEPKSCDTPPPCPRCP
modifications: left off: a dimerising Fc or GST
notes: m36 joined with human IgG1 Fc by a human IgG3 hinge
Which EC50 [1] does the source give for B1 here?
The EC50 was about 0.5 nM.

And the “number of isolates neutralized” value [2]?
Its value is “five isolates”.

And the “potency against 89.6 compared to m36” value [2]?
Its value is “higher than that of m36”.

What about the “potency compared to m36h1Fc” value [2] of the same molecule?
Its value is “did not exhibit higher potency”.

B2: m36SAbp: m36 fused to a serum albumin binding peptide (SAbp), MW~18 kDa (protein)
chain: QVQLVQSGGGLVQPGGSLRLSCAASAFDFSDYEMSWVRQAPGKGLEWIGEINDSGNTIYNPSLKSRVTISRDNSKNTLYLQMNTLRAEDTAIYYCAIYGGNSGGEYWGQGTLVTVSSQRHPEDICLPRWGCLWGDDD
modifications: left off: small tags and cut ends
Which “binding to serum albumin” value [3] does the source give for B2 here?
Its value is “binds”.

What about the “binding to gp120Bal-CD4 compared to m36” value [1] of the same molecule?
The value was “comparable to that of m36”.

What about the “binding to serum albumin” value [4] of the same molecule?
The value was “binds”.

What about the “binding to serum albumin” value [5] of the same molecule?
The value was “binds”.

And the “neutralizing activity compared to m36” value [2]?
Its value is “slight but not significant decrease; also recorded: about the same neutralizing activity”.

B3: m36c2Fc: m36 joined with human IgG1 Fc by a camel IgG2 hinge (protein)
chain: QVQLVQSGGGLVQPGGSLRLSCAASAFDFSDYEMSWVRQAPGKGLEWIGEINDSGNTIYNPSLKSRVTISRDNSKNTLYLQMNTLRAEDTAIYYCAIYGGNSGGEYWGQGTLVTVSSEPKIPQPQPKPQPQPQPQPKPQPKPEPECTCPKCP
modifications: left off: a dimerising Fc or GST
notes: m36 joined with human IgG1 Fc by a camel IgG2 hinge
Which EC50 [1] does the source give for B3 here?
The EC50 was about 0.5 nM.

And the “number of isolates neutralized” value [2]?
Its value is “five isolates”.

What about the “potency against 89.6 compared to m36” value [2] of the same molecule?
The value was “higher than that of m36”.

And the “potency compared to m36h1Fc” value [2]?
The value was “did not exhibit higher potency”.

B4: m36: human VH domain antibody (dAb) on m0 scaffold targeting CD4i epitope of HIV-1 gp120; CDR3 AIYGGNSGGEY (protein)
VHH: QVQLVQSGGGLVQPGGSLRLSCAASAFDFSDYEMSWVRQAPGKGLEWIGEINDSGNTIYNPSLKSRVTISRDNSKNTLYLQMNTLRAEDTAIYYCAIYGGNSGGEYWGQGTLVTVSS
With B4 as the molecule, how does the “competition with CD4bs antibody m14 for binding to gp120Bal-CD4” value [6] read?
The value was “not with the CD4 binding site (CD4bs) antibody m14”.

What about the “competition with CD4i antibody m16 for binding to gp120Bal-CD4” value [6] of the same molecule?
Its value is “competed”.

What about the “competition with m14 for binding to gp140GXC-44” value [7] of the same molecule?
The value was “competed”.

What about the “binding to CD4 alone” value [8] of the same molecule?
Its value is “not to gp120Bal or to soluble CD4 (sCD4) and BSA”.

What about the “binding to CD4 alone” value ([8]; listed as b5) of the same molecule?
The value was “neither gp120 nor CD4 alone”.

What about the “binding to gp140GXC-44” value ([9]; gp140GXC-44 alone) of the same molecule?
The value was “did bind although weaker”.

And the “binding to gp140GXC-44” value ([9]; in the presence of sCD4)?
The value was “bound”.

And the oligomeric state [10]?
Its oligomeric state is “monomeric”.

And the “binding to tethered gp140 from 89.6” value ([11]; after gp140 bound to CD4)?
Its value is “enhanced”.

What about the “binding to tethered gp140 from 89.6” value ([11]; without complexation with CD4) of the same molecule?
Its value is “bound”.

And the “binding to gp120 alone” value [12]?
Its value is “not to gp120Bal or to soluble CD4 (sCD4) and BSA”.

What about the “binding to BSA” value [13] of the same molecule?
Its value is “not to gp120Bal or to soluble CD4 (sCD4) and BSA”.

What about the “inhibition of the isolate from clade C” value ([2]; at 667 nM) of the same molecule?
The value was 100%.

And the “isolates completely (100%) inhibited” value ([2]; at 667 nM, 7 clade B isolates in panel)?
Its value is 4 out of 7.

And the “neutralization of the clade E isolate GXE” value ([2]; at concentrations up to 667 nM)?
The value was “did not neutralize”.

What about the “potency compared to peptide C34” value ([2]; average over panel) of the same molecule?
The value was “on average more potent”.

And the “neutralization potency compared to scFv m9” value ([2]; average, six clade B, one clade C, one clade A isolate, IC50s on molar basis)?
Its value is “two-fold higher”.

What about the “cross-reactivity against HIV-1 isolates” value ([2]; clade A, B, C, and D) of the same molecule?
Its value is “cross-reactive”.

And the “neutralization activity compared to scFv m9” value ([2]; clade B isolate 89.6 and clade-D isolate Z2Z6)?
Its value is “lower neutralization activity”.

What about the IC90 ([2]; clade C isolate GXC-44 and clade B isolate NL4-3) of the same molecule?
Its IC90 is “very low IC90s”.

And the precipitation on storage [14]?
Its precipitation on storage is “no precipitation”.

B5: m36CH3: m36 fused to human IgG1 CH3 domain without linker, MW~60 kDa (protein)
VHH: QVQLVQSGGGLVQPGGSLRLSCAASAFDFSDYEMSWVRQAPGKGLEWIGEINDSGNTIYNPSLKSRVTISRDNSKNTLYLQMNTLRAEDTAIYYCAIYGGNSGGEYWGQGTLVTVSS
modifications: left off: a dimerising Fc or GST; small tags and cut ends
notes: m36 fused to human IgG1 CH3 domain without linker, MW~60 kDa
Which results are given for B5?
binding to gp120Bal-CD4 compared to m36 [1]: comparable to that of m36; isolates with loss of neutralization compared to m36 ([2]; 10 isolates): 7 of 10; IC50s compared to the corresponding ones for m36 ([2]; IIIB, 89.6 and NL4-3): significantly higher; neutralizing activity compared to m36 [2]: significantly weaker

B6: m36b0Fc: m36 fused to human IgG1 Fc without peptide linker, MW~80 kDa (protein)
VHH: QVQLVQSGGGLVQPGGSLRLSCAASAFDFSDYEMSWVRQAPGKGLEWIGEINDSGNTIYNPSLKSRVTISRDNSKNTLYLQMNTLRAEDTAIYYCAIYGGNSGGEYWGQGTLVTVSS
modifications: left off: a dimerising Fc or GST
notes: m36 fused to human IgG1 Fc without peptide linker, MW~80 kDa
Which results are given for B6?
binding to gp120Bal-CD4 compared to m36 [1]: bound slightly better; inhibitory activity against 89.6 and NL4-3 [2]: decreased inhibitory activity; neutralization of TCLA isolate IIIB [2]: lost neutralization
